KR20220012792A (dated 2022)
Like-named read-outs stand apart in the source and are kept apart here.

Assays:
Experiment in all cases: cell-based or functional assay
[1] = target: T1, S 단백질 of SARS-CoV-2 BetaCoV/Korea/KCDC03/2020 (614D, S형) (SARS-CoV-2)
[2] = target: T1, S 단백질 of SARS-CoV-2 …; remark: listed apart in the source
[3] = target: S 단백질 of SARS-CoV-2 hCoV-19/South Korea/KNIH04/2020 (L형) (SARS-CoV-2)
[4] = target: S 단백질 of SARS-CoV-2 hCoV-19/Korea/KCDC31/2020 (V형) (SARS-CoV-2)
[5] = target: T1, S 단백질 of SARS-CoV-2 …; remark: listed apart in the source

B1: No. 139 항체 (Full IgG) (antibody, V domains shown)
VH: QITLKESGPTLVKPTQTLTLTCSFSGFSLSTSGVGVGWIRQPPGKALEWLALIDWDDNKYHTTSLKTRLTISKDTSKNQVVLTMTNMDPVDTATYYCARIPGFLRYRNRYYYYGMDVWGQGTTVTVSS
VL: ELVLTQPPSVSAAPGQKVTISCSGSSSNIGNNYVSWYQQLPGTAPKLLIYDNNKRPSGIPDRFSGSKSGTSATLGITGLQTGDEADYYCGTWDSSLSAGVFGGGTELTVL
IC50 (ng/ml), PRNT [1]: 29.8 ng/mL
IC50 (ng/ml), PRNT [2]: 4.1 ng/mL
IC50, PRNT [2]: 8.37 ng/mL
IC50 (ng/ml), PRNT [3]: 4.79 ng/mL
IC50 (ng/ml), PRNT [4]: 8 ng/mL
IC50 (ng/ml), PRNT [5]: 6.76 ng/mL
